Reference: publication PMC314469, “Protein Interaction Networks by Proteome Peptide Scanning” (PLoS Biology, 2004)

Tests used:
Assay in all cases: SPOT array
[1] = molecular target: T1, Rvs167 SH3 (RV167_YEAST), P39743
T1 chain: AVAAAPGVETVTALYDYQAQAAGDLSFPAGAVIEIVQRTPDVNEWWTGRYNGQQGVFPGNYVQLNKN

[2] = molecular target: T2, Boi2 SH3 (BOI2_YEAST), P39969
T2 chain: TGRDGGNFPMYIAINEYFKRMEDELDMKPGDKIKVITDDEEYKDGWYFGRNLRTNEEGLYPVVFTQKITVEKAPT

[3] = molecular target: T3, Boi1 SH3 (BOI1_YEAST), P38041
T3 chain: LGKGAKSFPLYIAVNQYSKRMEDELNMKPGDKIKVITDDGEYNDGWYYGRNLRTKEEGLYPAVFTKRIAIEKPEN

[4] = molecular target: T4, Yfr024 SH3 (LSB3_YEAST), P43603
T4 chain: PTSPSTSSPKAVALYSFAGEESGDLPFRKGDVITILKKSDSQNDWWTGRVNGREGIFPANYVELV

[5] = molecular target: T5, Yhr016c SH3 (YSC84_YEAST), P32793
T5 chain: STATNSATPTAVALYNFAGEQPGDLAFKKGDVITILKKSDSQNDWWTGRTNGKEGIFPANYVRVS

Binder	normalised SPOT signal, Boehringer light units (BLU); mean over the file's lines of this peptide [1]	normalised SPOT signal, Boehringer light units (BLU); mean over the file's lines of this peptide [2]	normalised SPOT signal, Boehringer light units (BLU); mean over the file's lines of this peptide [3]	normalised SPOT signal, Boehringer light units (BLU); mean over the file's lines of this peptide [4]	normalised SPOT signal, Boehringer light units (BLU); mean over the file's lines of this peptide [5]
SSTPTTPERPKRKS [YHR182W 758-771]	579	36.8	818	58100	31700
SSSPFIPKKRKPRS [YLR430W 2218-2231]	42.9	92	76.5	1970	258
SSNPDDPIRVTTPM [YOL004W 293-306]	20.9	75.1	25.6	85	282
SSRPTSPVRKARST [YER173W 28-41]	98.3	73.1	368	1780	317
SSIPPNPGKTAKPI [YBR198C 108-121]	56.1	42.9	71.5	135	429
SQKPQKPKKSAITK [YJR033C 1337-1350]	27	74.5	87.8	647	81.8
SSPPPLPTRRDHIK [YPR171W 184-197]	33600	361	56800	35200	117000
SSTPIVPNRLKTVL [YHR164C 158-171]	1490	10.8	56.2	6570	1960
SSYPMNPPKISFMQ [YGR133W 86-99]	65.4	111	17.1	440	215
SSFPTIPLRASSGA [YER006W 232-245]	786	9.1	468	3160	777
SRKPPIPAKQHVKK [YIL156W 547-560]	14.9	-0	51.7	4850	35.2
SSMPNSPKKPVDSL [YDL117W 117-130]	335	90.7	78.9	902	108
SRPPRPPPKPLHLR [YIL095W 747-760]	565	216	100	25900	1020
STPPTLPPRRIEDP [YMR192W 200-213]	24400	44.5	194	27500	49300
SSRPMPPIRGPKRR [YLR147C 88-101]	771	376	1100	11600	1900
SPSPSTPTKSGKMR [YKL185W 424-437]	35.3	52.9	278	302	150
SQSPKRPKKYPKKA [YNL080C 295-308]	57.3	36.6	47	624	214
SQQPTAPMKKTLLK [YMR198W 453-466]	53.5	2.3	343	58.5	0
SSLPLGPIKERSKQ [YMR012W 146-159]	15.4	19.3	120	78	-0
SQFPSSPYRTVDPY [YLR183C 3-16]	37.5	9	72	114	330
SSLPSPPAKKSATS [YOL006C 72-85]	40.7	16.7	66.2	300	61.3
SSQPRPPPRPQQNP [YGR268C 71-84]	956	5.7	69.2	8620	2040
